{
  "source": "patent US20230332104A1",
  "about": "“ZBTB32 INHIBITORS AND USES THEREOF” (NOVARTIS AG, priority 2020, published 2023)",
  "origin": "cited, not measured here",
  "tested_on": "rodent and cynomolgus monkey TGF-β",
  "data": [
    {"molecule": "XOMA 089: fully human monoclonal antibody that specifically binds and neutralizes TGF-beta 1 and 2 ligands (antibody, V domains shown) VH: QVQLVQSGAEVKKPGSSVKVSCKASGGTFSSYAISWVRQAPGQGLEWMGGIIPIFGTANYAQKFQGRVTITADESTSTAYMELSSLRSEDTAVYYCARGLWEVRALPSVYWGQGTLVTVSS VL: SYELTQPPSVSVAPGQTARITCGANDIGSKSVHWYQQKAGQAPVLVVSEDIIRPSGIPERISGSNSGNTATLTISRVEAGDEADYYCQVWDRDSDQYVFGTGTKVTVLG", "values": [
      {"measurement": "cross-reactivity with rodent and cynomolgus monkey TGF-β", "result": "cross-reacts"}
    ]}
  ]
}
